Each substance was assayed against amylin receptor (rat basal forebrain membranes containing the nucleus accumbens and surrounding regions) (rat) (assay: competition with 125I-Bolton-Hunter rat amylin on rat basal forebrain membranes, filtration).

Chain of 28Pro-h-Amylin (peptide) (peptide): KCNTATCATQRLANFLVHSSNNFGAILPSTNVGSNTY
Chain of 29Pro-h-Amylin (peptide) (peptide): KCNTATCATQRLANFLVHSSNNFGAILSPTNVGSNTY

| Substance | IC50 |
| --- | --- |
| 1Ala-h-Amylin (peptide) | 148 pM |
| 29Pro-h-Amylin (peptide) | 64 pM |
| purified human amylin (from UniProt P10997 34-70) (peptide) | 50 pM |

Substances with a lower IC50, results first:

| IC50 | Substance |
| --- | --- |
| 33 pM | 1Ser-h-Amylin (peptide) |
| 15 pM | 28Pro-h-Amylin (peptide) |
